Consider 21 sequences from the DeepSol protein solubility set.

A short description of this data set: soluble on expression in E. coli; label from the status in PepcDB or PDB records.
In the case of “MKAIIVKPPNAGVQVKDVDEKKLDSYGKIKIRTIYNGICGADREIVNGKLTLSTLPKGKDFLVLGHEAIGVVEESYHGFSQGDLVMPVNRRGCGICRNCLVGRPDFCETGEFGEAGIHKMDGFMREWWYDDPKYLVKIPKSIEDIGILAQPLADIEKSIEEILEVQKRVPVWTCDDGTLNCRKVLVVGTGPIGVLFTLLFRTYGLEVWMANRREPTEVEQTVIEETKTNYYNSSNGYDKLKDSVGKFDVIIDATGADVNILGNVIPLLGRNGVLGLFGFSTSGSVPLDYKTLQEIVHTNKTIIGLVNGQKPHFQQAVVHLASWKTLYPKAAKMLITKTVSINDEKELLKVLREKEHGEIKIRILWE”, the “soluble on expression in E. coli” value is on record as “soluble”.
With “MVIDQTDPIYVLFHDEEWGVPVRDDKKLFELLVFSQALAEFSWPSILRRRDDFRKLFEEFDPSAIAQFTEKRLMSLRVNGCLILSEQKLRAIVENAKSVLKVKQEFGSFSNYCWRFVNHKPLRNGYRYGRQVPVKSPKAEYISKDMMQRGFRCVGPTVMYSFLQASGIVNDHLTACFRYQECNVETERETKSHETETKLDLHSPLLV” the entry was “soluble”; with “GMTQQTDLQSKTNIDPLAMNDSFLAAADALAVDPMFGIPANVREVIARRGNATRLVILGTKGFGAHLMNVRHERPCEVIAAVDDFRYHSGELYYGLPIISTDRFTELATHDRDLVALNTCRYDGPKRFFDQICRTHGIPHLNFEQAVRAFGLQGNVDYRVDDWGADIVRNIPAFQTLAQRLADDYSVQTLYAVLNFHLTCEPEYYHEVERPYSTLYFRSGLLRFSDSEKMVDCGASIGESLAGLIGVTKGKFERVWMIEPDRINLQTLQNVLRRYTDTNFASRITVHGCGAGENTIRVPFNHEGGHGGFVKPADADHEPADLIDVRPIDDIIDDAPTFIKMDIEGSELSALKGARRAISEHKPKLAISAYHRSTDLLDLTNYILSIRPDYQIGLRHHTPDRWDTCLYFY”, “soluble”.
As for “MSLGEHLEFDEKKIEKIMMIKRSYLNGEISLEEAKIKMQASFDQVTAQEFAICEQYLQKYGISDDVLAERMEEIIEIFDGVLVTTKLNLPSGHPIRTYLDEVDAIRRILGEMREMSKKKFIKNQWAQYYDQLGEINIHFARKQNQLFTALEKKGFDKPSKVMWTLDNNIRDMIKKAKEYLETDQDNAFLEIQDEVIEMVEDMMVKEEEILFPTTMDLLTDEDFIEMRKGDDEIGYCLIDSPLPYGKKENKDTDTSSNNELLKDLANVLQKHGMLTKASNDEVLDVSQGKLTLEQINLLFKHLQVDLSFVDENEIVKFYSDTKHRVFPRSAGVIGREVQNCHPRESVHTVEEIIRAFRAGEHDEAEFWLEMGGKFIYIIYNAVRDEDGNFKGVLEMMQDVTKIRSLTGSQRLLSWGDKEEEPKSKVTEHTGIENEYGITKETIIGDLVKEYPFIKEFLFNLSPKFSKLQNPIVFKTMSSIATVEMISEKGGFEVQDLIDRIVKEIQSRKEGHHHHHH”, the entry is “soluble”; as for “ADDAKPRVKVPSSAKAGETVTVKALISHKMESGQRKDADGKLIPRSIINRFTCELNGVNVVDVAIDPAVSTNPYFEFDAKVDAAGEFKFTWYDDDGSVYEDVKPIAVA”, “soluble”; as for “ALGAPDGVTQGASLSRSIQPLLDAHPGKTGLHVLEKGEESLLARAWLADHATETIDVQYFIWSTDNIGILASEALLRAAERGVRVRVLVDDLLIDAPPESLLALARHPRIDIRIYNPTMTVGTSKVKRLGNVVTGFRSVNQRMHDKTALFDGVVGITGGRNMADEYYDYDQEYTFRDRDILMLGPAVAEAEASFARFWESPLAVPVEKLLKKGMKKMT”, “not soluble”.
As for “MNLEMLESQPVPEIDTLREEIDRLDAEILALVKRRAEVSKAIGKARMASGGTRLVHSREMKVIERYSELGPDGKDLAILLLRLGRGRLGH”, the entry is “soluble”; as for “SHRRFRRHWLVSPSIWWHNRRILDFMPSENRLNGIDVCLNIGALERGSDCKRREERDMAGQAEQMAAELDRHGAAVFFREYPNADHGNVPFYSLTDCVEYLRKAWQR”, “not soluble”; as for “AHHHHHHGSNKRFPFPVGEPDFIQGDEAIARAAILAGCRFYAGYPITPASEIFEAMALYMPLVDGVVIQMEDEIASIAAAIGASWAGAKAMTATSGPGFSLMQENIGYAVMTETPVVIVDVQRSGPSTGQPTLPAQGDIMQAIWGTHGDHSLIVLSPSTVQEAFDFTIRAFNLSEKYRTPVILLTDAEVGHMRERVYIPNPDEIEIINRKLPRNEEEAKLPFGDPHGDGVPPMPIFGKGYRTYVTGLTHDEKGRPRTVDREVHERLIKRIVEKIEKNKKDIFTYETYELEDAEIGVVATGIVARSALRAVKMLREEGIKAGLLKIETIWPFDFELIERIAERVDKLYVPEMNLGQLYHLIKEGANGKAEVKLISKIGGEVHTPMEIFEFIRREFK”, “soluble”.
With “MGSDKIHHHHHHMAFRVILIENEVTIKVKLNNLIITKCGEDIWIPLDDISMIVLDNLASNLSTRLMCQLAEQGIGLMLYNQQHLPTGFYSAYDNHSRASKVIGFQIDKEQDYYGKLWQQIVKIKIENQAKAYQIMTRDSDGPEKIIEFSKNILIGDKSNREAHAAKVYFNLLMGTSFSRGNEDILLNSGLDYGYAVIRGYIARACVGYGLNTQIGIHHKSEYNRFNLVDDLMEPLRPIVDIVAYNSMKNDKYFTPEHRRKLVSILNMKIMYREKKMYMCNMIENYIEQYASLIMKRTDNIVFPDVYNLIGEEYG”, the “soluble on expression in E. coli” value is recorded as “not soluble”.
With “MQLDTIHKITGTLILKSGLHIGAGDSEMRIGGTDSPVVKDPLTDQPYIPGSSLKGKIRSLLEWRHGLVVATGGAPYSFKHLAQDENNSAGRDVIKLFGGAPDKAEDQLVKNIGPTRLAFWDCPLNGDWKKEAADSRHLLTTEVKSENSINRIAGTAEHPRFIERVIAGARFDFTLTLKVLEGDDLLNTVLLGLRLLELDSLGGSGSRGYGKIKFAELKLDGTDLMEQFHAITPFNQTA” the entry was “not soluble”; with “MQKLPHSLFFGPAGCGKTTFARVVAKDFGLDFYEFDGGNFKLEDLRKIIENYKNSLYKPLIFIDEIHRLSKTQQEMLLIPMENYRCIVIGASTENPYFVLSSGIRSRSMLFEFKNLGQKDLELLLERVQQKIAFKIEDNAKEFLLKSFDARAMLNLLEFALVLNEKEITLENLKKLRNGVNSEGVSSKDTHYILASALIKSLRGSDVDAAIYYLARLIDAGESADFIARRLIIFASEDISNADPNALNLAVSTLTAVKNIGYPEARIILSQCAVYLASAPKSNSSYNAINKALDYVKNNPALEIPNYLNNNHPEKKNYLYPHNFGGWVKQNYLSANLKFYESKGIGEEARLLENLSKLKNIKS”, “soluble”; with “MGSDKIHHHHHHMERCSVLRIKRLPESLVRKIAAGEVIHNPSFVLKELVENSLDAQADRIVVEIENGGKNMVRVSDNGIGMTREEALLAIEPYTTSKIESEEDLHRIRTYGFRGEALASIVQVSRAKIVTKTEKDALATQLMIAGGKVEEISETHRDTGTTVEVRDLFFNLPVRRKSLKSSAIELRMCREMFERFVLVRNDVDFVFTSDGKIVHSFPRTQNIFERALLILEDLRKGYITFEEELSGLRIKGIVSSREVTRSSRTGEYFYVNGRFVVSEELHEVLMKVYDLPKRSYPVAVLFIEVNPEELDVNIHPSKIVVKFLNEEKVKKSLEETLKRNLARKWYRSVAYEEISSRALSVAEAPSHRWFLVKGKYAVVEVEDGLLFVDLHALHERTIYEEILSKKSWGKRRVKRNITVVLSREEKQKLEEYGFSFQGEEGALKVIEIPEFLTEDVVEEFFRDFPVDEKLKERIALAACKLATKSGEFDEEIASKLLDVFFKKRFERCPHGRPISFKISYEDMDRFFER”, “not soluble”.
For “MRFGPVALSAAKGALLAHSRKAPGWTLAKGTRLGDEDLALLAGLGVAEVVVARLDPGDVHEDEAAARVAAVLLGPGLTLGDAFTGRANLFAGGDGLLRLDAARFDRLNALCEGLTVATLPPFAKVAPRQMVATVKIIPFALPETVIAQAEALLAGAPALEVALFRPMRLALIQTHLPETAGKMLDKTASVTAGRMAALGGGLTVDRRCPHDTRALAACLSAVSAEKDVDLIAVAGASAIVDRGDVIPAAITRAGGRVDHLGMPVDPGNLILLGELAGRVVLGLPGCARSPAINGFDWVLDRLCAGLAVGGADLMAMGVGGLLKDTTARTQPRMAAVTHPSPAAPPRLGALVLAAGLSRRMGGVNKLLLDWRGKPLVAHAVDTVLAAGPAAVAVVIGHQGKAVRAALEGRAIALVENPDPGRGLGSSLKRGLAALPADLDGVIVCLGDMPGLTPRLLSRLIAAFAPLEGRAICLPTFGGRRGNPVLFAARFLPEMMEITGDIGARPVIAAHPDQTCEVAMDALAEGASVLMDVDTPEAAKALLSAGGLEHHHHHH”, the “soluble on expression in E. coli” value is “not soluble”.
Turning to “MGSSHHHHHHMQPEHVKERYKNFLNQHVGPDMSVQRCNSEIGPNNRKITLSGTDNGCKPVNTFILANKRLIKTVCGRAGSPQGNMVRSNQPFPVVKCVLNNGERHPYCEYRGTRSTRYIVLKCEEGWPVHYHEDEVNVG”, the “soluble on expression in E. coli” value is reported as “soluble”.
Turning to “MGEYIRYQGEEALGLIETLGMVPAIYGADSMLKAANVQLISYENVGSTLVTVMVKGDVAAVQASVDAGSVAAAGIGKLTAHNVMPRPIRPIGDIVSVHAITDDAPAGDGSRPRAMGLIETFGIVYVLEAADAMLKTADVELIGYENVASGYISVLVQGDVAACQAAVAAGVKAVQAMGTDVYSSVVIPTPHPDVAKITARYALENLLP”, the “soluble on expression in E. coli” value is given as “not soluble”.
As for “MGSDKIHHHHHHMQRKKIGVALGSGAAKGWAHIGVLNALTEMGIEVDVVAGCSIGALVGAAYATNNLSSMDRWVRSFGYWDVIRLMDLSWQRGSLLRGDRVFNSVKHLLHTTQIEDCDIKYGVVTTNLSTGRELWLTEGDLHQAMRASCSMPGLLSPVRFNDYWLVDGAVVNPVPVSLARAMGADIVIAVDLQHDASLNHQDLLSIKPTASDIDAENVPQDWRSRIRERLLRGRRHPAESSPTAMEIMSTSIQILENRLKMTRMAGDPPDVLLQPHCPQIATLDFHRAQEAIDAGYKAVEKMRDELLPLAKEA”, the entry is “not soluble”.
With “MRLKKLYLKGFKSFGRPSLIGFSDRVTAIVGPNGSGKSNIIDAIKWVFGEQSKKELRASEKFDMIFAGSENLPPAGSAYVELVFEENGEEITVARELKRTGENTYYLNGSPVRLKDIRDRFAGTGLGVDFYSIVGQGQIDRIVNASPEELRLESSKHPTSLVPRGSYQRVNESFNRFISLLFFGGEGRLNIVSEAKSILDAGFEISIRKPGRRDQKLSLLSGGEKALVGLALLFALMEIKPSPFYVLDEVDSPLDDYNAERFKRLLKENSKHTQFIVITHNKIVMEAADLLHGVTMVNGVSAIVPVEVEKILEVGSHHHHHH”, the “soluble on expression in E. coli” value is listed as “soluble”.
With “IEDEVIYSKKRYKLKREIDKLFLDEEYFQIEPQLFEEYDEFTTINNKIPEESMVKVVNGKVMVLRADITTSIIKSLVPRWEDGLKLKLFYNSSIYKNKNTVGIKEIRQIGCEYLGEASVEADREVVKLALKILEKYNNNFILEVGSSKYIHGLLEELNLNKNCENQIKNLLYTKNTHELKVYIEELKIKHEVKELLSNILSLQGNLYNVIEKSNKFYCNNKMKQALEELKQVNNLIEECNFLDKARFDLSMITMLDYYEGIMFRGYYPNSYKEILSGGRYDSLTKEYGKEIPAIGFTLSVDELMKYVYK” the entry was “not soluble”.
As to “MRTSFFAAAALLAVSAFAQAHEYNAGQLHIEHPWALALPPTSPNGAAYFVVQNHGKENDTLLGADTPRAASAEVHEHVHKNGMMSMQKVDSVDVAPGKDLRFAPGGYHLMLMGLKQPLVAGERFPLTLHFRKAGDVPVEIVVESKAPAEQGGHEQHGH”, the “soluble on expression in E. coli” value is “soluble”.
With “MKIVAVTACPTGIAHTYMAADALTKAAPKYNVQIKVETQGAMGIENPLTPYDLSHADKVLIVSDIDIEQPARFEGMKVVKLSIEEVLLNVDKVFLVHCR” the entry was “not soluble”.
